B1: Segment polarity protein dishevelled (Drosophila melanogaster (Fruit fly)), P51140 (parent)
chain: MDADRGGGQETKVIYHIDDETTPYLVKIPIPSAQVTLRDFKLVLNKQNNNYKYFFKSMDADFGVVKEEIADDSTILPCFNGRVVSWLVSADGTNQSDNCSELPTSECELGMGLTNRKLQQQQQQHQQQQQQQQQQHQQQQQQQQQQVQPVQLAQQQQQQVLHHQKMMGNPLLQPPPLTYQSASVLSSDLDSTSLFGTESELTLDRDMTDYSSVQRLQVRKKPQRRKKRAPSMSRTSSYSSITDSTMSLNIITVSINMEAVNFLGISIVGQSNRGGDGGIYVGSIMKGGAVALDGRIEPGDMILQVNDVNFENMTNDEAVRVLREVVQKPGPIKLVVAKCWDPNPKGYFTIPRTEPVRPIDPGAWVAHTQALTSHDSIIADIAEPIKERLDQNNLEEIVKAMTKPDSGLEIRDRMWLKITIPNAFIGADAVNWVLENVEDVQDRREARRIVSAMLRSNYIKHTVNKLTFSEQCYYVVNEERNPNLLGRGHLHPHQLPHGHGGHALSHADTESITSDIGPLPNPPIYMPYSATYNPSHGYQPIQYGIAERHISSGSSSSDVLTSKDISASQSDITSVIHQANQLTIAAHGSNKSSGSSNRGGGGGGGGGGNNTNDQDVSVFNYVL

Variants of: B1
Settings: with abl_drome Abl

effect of a mutation on the interaction	Variant
decreasing interaction strength	Y473F

Source: IntAct's records for PubMed 20837657
